# Patent publication US20090099029
# T1: Bovine, dephosphorylated, Myelin Basic Protein (MBP), P02687
# T1 chain: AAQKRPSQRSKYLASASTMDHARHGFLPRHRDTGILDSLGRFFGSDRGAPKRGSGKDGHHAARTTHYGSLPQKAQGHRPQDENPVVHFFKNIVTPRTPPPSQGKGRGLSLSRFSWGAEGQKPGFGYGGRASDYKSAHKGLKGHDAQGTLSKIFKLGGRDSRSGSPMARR
# B1: GRK6 (protein)
# chain: MELENIVANTVLLKAREGGGGNRKGKSKKWRQMLQFPHISQCEELRLSLERDYHSLCERQPIGRLLFREFCATRPELSRCVAFLDGVAEYEVTPDDKRKACGRQLTQNFLSHTGPDLIPEVPRQLVTNCTQRLEQGPCKDLFQELTRLTHEYLSVAPFADYLDSIYFNRFLQWKWLERQPVTKNTFRQYRVLGKGGFGEVCACQVRATGKMYACKKLEKKRIKKRKGEAMALNEKQILEKVNSRFVVSLAYAYETKDALCLVLTLMNGGDLKFHIYHMGQAGFPEARAVFYAAEICCGLEDLHRERIVYRDLKPENILLDDHGHIRISDLGLAVHVPEGQTIKGRVGTVGYMAPEVVKNERYTFSPDWWALGCLLYEMIAGQSPFQQRKKKIKREEVERLVKEVPEEYSERFSPQARSLCSQLLCKDPAERLGCRGGSAREVKEHPLFKKLNFKRLGAGMLEPPFKPDPQAIYCKDVLDIEQFSTVKGVELEPTDQDFYQKFATGSVPIPWQNEMVETECFQELNVFGLDGSVPPDLDWKGQPPAPPKKGLLQRLFSRQDCCGNCSDSEEELPTRL
# B2: GSK3A (protein)
# chain: MSGGGPSGGGPGGSGRARTSSFAEPGGGGGGGGGGPGGSASGPGGTGGGKASVGAMGGGVGASSSGGGPGGSGGGGSGGPGAGTSFPPPGVKLGRDSGKVTTVVATLGQGPERSQEVAYTDIKVIGNGSFGVVYQARLAETRELVAIKKVLQDKRFKNRELQIMRKLDHCNIVRLRYFFYSSGEKKDELYLNLVLEYVPETVYRVARHFTKAKLTIPILYVKVYMYQLFRSLAYIHSQGVCHRDIKPQNLLVDPDTAVLKLCDFGSAKQLVRGEPNVSYICSRYYRAPELIFGATDYTSSIDVWSAGCVLAELLLGQPIFPGDSGVDQLVEIIKVLGTPTREQIREMNPNYTEFKFPQIKAHPWTKVFKSRTPPEAIALCSSLLEYTPSSRLSPLEACAHSFFDELRCLGTQLPNNRPLPPLFNFSAGELSIQPSLNAILIPPHLRSPAGTTTLTPSSQALTETPTSSDWQSTDATPTLTNSS
# B3: IKBKB (protein)
# chain: MSWSPSLTTQTCGAWEMKERLGTGGFGNVIRWHNQETGEQIAIKQCRQELSPRNRERWCLEIQIMRRLTHPNVVAARDVPEGMQNLAPNDLPLLAMEYCQGGDLRKYLNQFENCCGLREGAILTLLSDIASALRYLHENRIIHRDLKPENIVLQQGEQRLIHKIIDLGYAKELDQGSLCTSFVGTLQYLAPELLEQQKYTVTVDYWSFGTLAFECITGFRPFLPNWQPVQWHSKVRQKSEVDIVVSEDLNGTVKFSSSLPYPNNLNSVLAERLEKWLQLMLMWHPRQRGTDPTYGPNGCFKALDDILNLKLVHILNMVTGTIHTYPVTEDESLQSLKARIQQDTGIPEEDQELLQEAGLALIPDKPATQCISDGKLNEGHTLDMDLVFLFDNSKITYETQISPRPQPESVSCILQEPKRNLAFFQLRKVWGQVWHSIQTLKEDCNRLQQGQRAAMMNLLRNNSCLSKMKNSMASMSQQLKAKLDFFKTSIQIDLEKYSEQTEFGITSDKLLLAWREMEQAVELCGRENEVKLLVERMMALQTDIVDLQRSPMGRKQGGTLDDLEEQARELYRRLREKPRDQRTEGDSQEMVRLLLQAIQSFEKKVRVIYTQLSKTVVCKQKALELLPKVEEVVSLMNEDEKTVVRLQEKRQKELWNLLKIACSKVRGPVSGSPDSMNASRLSQPGQLMSQPSTASNSLPEPAKKSEELVAEAHNLCTLLENAIQDTVREQDQSFTALDWSWLQTEEEEHSCLEQAS
# B4: GRK4 (protein)
# chain: MELENIVANSLLLKARQGGYGKKSGRSKKWKEILTLPPVSQCSELRHSIEKDYSSLCDKQPIGRRLFRQFCDTKPTLKRHIEFLDAVAEYEVADDEDRSDCGLSILDRFFNDKLAAPLPEIPPDVVTECRLGLKEENPSKKAFEECTRVAHNYLRGEPFEEYQESSYFSQFLQWKWLERQPVTKNTFRHYRVLGKGGFGEVCACQVRATGKMYACKKLQKKRIKKRKGEAMALNEKRILEKVQSRFVVSLAYAYETKDALCLVLTIMNGGDLKFHIYNLGNPGFDEQRAVFYAAELCCGLEDLQRERIVYRDLKPENILLDDRGHIRISDLGLATEIPEGQRVRGRVGTVGYMAPEVVNNEKYTFSPDWWGLGCLIYEMIQGHSPFKKYKEKVKWEEVDQRIKNDTEEYSEKFSEDAKSICRMLLTKNPSKRLGCRGEGAAGVKQHPVFKDINFRRLEANMLEPPFCPDPHAVYCKDVLDIEQFSVVKGIYLDTADEDFYARFATGCVSIPWQNEMIESGCFKDINKSESEEALPLDLDKNIHTPVSRPNRGFFYRLFRRGGCLTMVPSEKEVEPKQC
# B5: GRK7 (protein)
# chain: MVDMGALDNLIANTAYLQARKPSDCDSKELQRRRRSLALPGLQGCAELRQKLSLNFHSLCEQQPIGRRLFRDFLATVPTFRKAATFLEDVQNWELAEEGPTKDSALQGLVATCASAPAPGNPQPFLSQAVATKCQAATTEEERVAAVTLAKAEAMAFLQEQPFKDFVTSAFYDKFLQWKLFEMQPVSDKYFTEFRVLGKGGFGEVCAVQVKNTGKMYACKKLDKKRLKKKGGEKMALLEKEILEKVSSPFIVSLAYAFESKTHLCLVMSLMNGGDLKFHIYNVGTRGLDMSRVIFYSAQIACGMLHLHELGIVYRDMKPENVLLDDLGNCRLSDLGLAVEMKGGKPITQRAGTNGYMAPEILMEKVSYSYPVDWFAMGCSIYEMVAGRTPFKDYKEKVSKEDLKQRTLQDEVKFQHDNFTEEAKDICRLFLAKKPEQRLGSREKSDDPRKHHFFKTINFPRLEAGLIEPPFVPDPSVVYAKDIAEIDDFSEVRGVEFDDKDKQFFKNFATGAVPIAWQEEIIETGLFEELNDPNRPTGCEEGNSSKSGVCLLL
# B6: EPHA4 (protein)
# chain: SRRRSKYSKAKQEADEEKHLNQGVRTYVDPFTYEDPNQAVREFAKEIDASCIKIEKVIGVGEFGEVCSGRLKVPGKREICVAIKTLKAGYTDKQRRDFLSEASIMGQFDHPNIIHLEGVVTKCKPVMIITEYMENGSLDAFLRKNDGRFTVIQLVGMLRGIGSGMKYLSDMSYVHRDLAARNILVNSNLVCKVSDFGMSRVLEDDPEAAYTTRGGKIPIRWTAPEAIAYRKFTSASDVWSYGIVMWEVMSYGERPYWDMSNQDVIKAIEEGYRLPPPMDCPIALHQLMLDCWQKERSDRPKFGQIVNMLDKLIRNPNSLKRTGTESSRPNTALLDPSSPEFSAVVSVGDWLQAIKMDRYKDNFTAAGYTTLEAVVHVNQEDLARIGITAITHQNKILSSVQAMRTQMQQMHGRMVPV
# B7: DYRK3 (protein)
# chain: MGGTARGPGRKDAGPPGAGLPPQQRRLGDGVYDTFMMIDETKCPPCSNVLCNPSEPPPPRRLNMTTEQFTGDHTQHFLDGGEMKVEQLFQEFGNRKSNTIQSDGISDSEKCSPTVSQGKSSDCLNTVKSNSSSKAPKVVPLTPEQALKQYKHHLTAYEKLEIINYPEIYFVGPNAKKRHGVIGGPNNGGYDDADGAYIHVPRDHLAYRYEVLKIIGKGSFGQVARVYDHKLRQYVALKMVRNEKRFHRQAAEEIRILEHLKKQDKTGSMNVIHMLESFTFRNHVCMAFELLSIDLYELIKKNKFQGFSVQLVRKFAQSILQSLDALHKNKIIHCDLKPENILLKHHGRSSTKVIDFGSSCFEYQKLYTYIQSRFYRAPEIILGSRYSTPIDIWSFGCILAELLTGQPLFPGEDEGDQLACMMELLGMPPPKLLEQSKRAKYFINSKGIPRYCSVTTQADGRVVLVGGRSRRGKKRGPPGSKDWGTALKGCDDYLFIEFLKRCLHWDPSARLTPAQALRHPWISKSVPRPLTTIDKVSGKRVVNPASAFQGLGSKLPPVVGIANKLKANLMSETNGSIPLCSVLPKLIS
# Molecular target: T1, Bovine, dephosphorylated, Myelin Basic …
row,Protein,MBP Kinase Activity
1,B1,Negative
2,B2,Weak
3,B3,Weak
4,B4,Negative
5,B5,Negative
6,B6,Strong
7,B7,Negative
